Patent EP4674438A1, “ANTIBODY-DRUG CONJUGATE CONTAINING ANTI-CD138 ANTIBODY” (priority 2023, dated 2024)

Legend:
human CD138 protein [1] = target: T1, human CD138 protein (human, UniProt P18827 23-310); experiment: cell-based or functional assay
T1 sequence: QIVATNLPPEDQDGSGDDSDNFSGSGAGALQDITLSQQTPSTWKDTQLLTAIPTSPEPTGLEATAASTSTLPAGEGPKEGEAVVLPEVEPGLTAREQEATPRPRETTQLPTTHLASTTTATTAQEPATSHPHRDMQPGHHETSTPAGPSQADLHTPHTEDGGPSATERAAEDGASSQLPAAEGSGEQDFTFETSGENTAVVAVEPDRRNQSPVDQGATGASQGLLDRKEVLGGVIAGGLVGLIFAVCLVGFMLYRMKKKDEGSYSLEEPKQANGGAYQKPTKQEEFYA

human CD138 protein [2] = target: T1, human CD138 protein; experiment: flow cytometry on AsPC-1 cells, 0.001 to 100 ug/ml, anti-human IgG Fc-APC
human CD138 protein [3] = target: T1, human CD138 protein; experiment: flow cytometry on AsPC-1 cells (legend of Figure 1)

B1: Antibody-drug conjugate 3 (ADC3) (antibody, V domains shown)
VH: QVQLQQSGSELMMPGASVKISCKATGYTFSNYWIEWVKQRPGHGLEWIGEILPGTGRTIYNEKFKGKATFTADISSNTVQMQLSSLTSEDSAVYYCARRDYYGNFYYAMDYWGQGTLVTVSS
VL: DIQMTQSTSSLSASLGDRVTISCSASQGINNYLNWYQQKPDGTVELLIYYTSTLQSGVPSRFSGSGSGTDYSLTISNLEPEDIGTYYCQQYSKLPRTFGGGTKLEIKR
modifications: MC-VC-PAB-MMAE on cysteine sulfhydryls after TCEP reduction of hinge disulfide bonds; positions not given; DAR 7.1
For B1, the “IC50 (ng/ml), cytotoxicity, Capan-1 (CD138-positive), CellTiter-Glo 2.0” value (from here on “IC50 (ng/ml), cytotoxicity”) (human CD138 protein [1]) was 13 ng/mL.

B2: Antibody-drug conjugate 4 (ADC4) (antibody, human IgG1, kappa, V domains shown)
VH: QVQLQQSGSELMMPGASVKISCKATGYTFSNYWIEWVKQRPGHGLEWIGEILPGTGRTIYNEKFKGKATFTADISSNTVQMQLSSLTSEDSAVYYCARRDYYGNFYYAMDYWGQGTLVTVSS
VL: DIQMTQSTSSLSASLGDRVTISCSASQGINNYLNWYQQKPDGTVELLIYYTSTLQSGVPSRFSGSGSGTDYSLTISNLEPEDIGTYYCQQYSKLPRTFGGGTKLEIKR
modifications: MC-VC-PAB-MMAF on cysteine sulfhydryls after TCEP reduction of hinge disulfide bonds; positions not given; DAR 2.2
For B2, the “IC50 (ng/ml), cytotoxicity” value (human CD138 protein [1]) was 165 ng/mL.

B3: Antibody 1 (antibody, V domains shown)
VH: QVQLQQSGSELMMPGASVKISCKATGYTFSNYWIEWVKQRPGHGLEWIGEILPGTGRTIYNEKFKGKATFTADISSNTVQMQLSSLTSEDSAVYYCARRDYYGNFYYAMDYWGQGTLVTVSS
VL: DIQMTQSTSSLSASLGDRVTISCSASQGINNYLNWYQQKPDGTVELLIYYTSTLQSGVPSRFSGSGSGTDYSLTISNLEPEDIGTYYCQQYSKLPRTFGGGTKLEIKR
notes: expressed in HEK293 cells; Same light chain as Antibody 2 (nBT062); also called anti-CD138 antibody
B3: binds (human CD138 protein [2]).

B4: Antibody-drug conjugate 10 (ADC10) (antibody, human IgG1, kappa, L234A L235A, V domains shown)
VH: QVQLVQSGAEVKKPGSSVKVSCKASGYTFSNYWIEWVRQAPGQGLEWIGEILPGTGRTIYNEKFKGRATFTADESTSTAYMELSSLRSEDTAVYYCARRDYYGNFYYAMDYWGQGTLVTVSS
VL: DIQMTQSPSSLSASVGDRVTITCSASQGINNYLNWYQQKPGKAPKLLIYYTSTLQSGVPSRFSGSGSGTDYTLTISSLQPEDFATYYCQQYSKLPRTFGGGTKVEIKR
modifications: MC-VC-PAB-MMAE on cysteine sulfhydryls after TCEP reduction of hinge disulfide bonds; positions not given; DAR 7.8
With B4 the “IC50 (ng/ml), cytotoxicity” value (human CD138 protein [1]) was 29 ng/mL.

B5: Antibody 5 (antibody, human IgG1, kappa, L234A L235A, V domains shown)
VH: QVQLVQSGAEVKKPGSSVKVSCKASGYTFSNYWIEWVRQAPGQGLEWIGEILPGTGRTIYNEKFKGRATFTADESTSTAYMELSSLRSEDTAVYYCARRDYYGNFYYAMDYWGQGTLVTVSS
VL: DIQMTQSPSSLSASVGDRVTITCSASQGINNYLNWYQQKPGKAPKLLIYYTSTLQSGVPSRFSGSGSGTDYTLTISSLQPEDFATYYCQQYSKLPRTFGGGTKVEIKR
notes: Humanized; also called anti-CD138 antibody
B5: binds (human CD138 protein [3]).
